Assay results reported in patent publication US20090155256A1 (Pfizer, published 2009).

Legend:
[1] = molecular target: Purified human C1q (191391, MP Biomedicals) (human, UniProt P02745 23-245; P02746 28-253; P02747 29-245); experiment: ELISA: Aβ-coated plate, antibody, purified human C1q, FITC anti-C1q
[2] = molecular target: T1, His-tagged domains of human FcγRIII (R&D Systems, Cat # 1597-Fc) (human, UniProt O75015 17-200, limits assumed); experiment: SPR (Biacore 3000), His-tagged receptor captured by penta-His antibody on CM5 chip, antibody injected; RU relative to control
T1 construct: not shown: His tag

[3] = molecular target: T2, His-tagged domains of human FcγRI (R&D Systems, Cat # 1257-Fc) (human, UniProt P12314 16-288); experiment: as above
T2 construct: Bought construct; not shown: His tag

[4] = molecular target: T1, His-tagged domains of human FcγRIII …; experiment: SPR (Biacore 3000), His-tagged receptor captured by penta-His antibody
[5] = molecular target: T2, His-tagged domains of human FcγRI (R&D …); experiment: as above

Sequence of Purified human C1q (191391, MP Biomedicals) (P02745 23-245 limits assumed, chain 1 of 3): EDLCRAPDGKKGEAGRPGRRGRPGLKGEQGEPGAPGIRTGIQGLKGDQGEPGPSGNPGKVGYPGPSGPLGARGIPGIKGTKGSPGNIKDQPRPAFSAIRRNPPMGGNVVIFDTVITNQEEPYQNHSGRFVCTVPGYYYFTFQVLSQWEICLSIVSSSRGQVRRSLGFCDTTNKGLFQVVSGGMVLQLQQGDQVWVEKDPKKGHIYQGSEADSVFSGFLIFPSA
Sequence of Purified human C1q (191391, MP Biomedicals) (P02746 28-253 limits assumed, chain 2 of 3): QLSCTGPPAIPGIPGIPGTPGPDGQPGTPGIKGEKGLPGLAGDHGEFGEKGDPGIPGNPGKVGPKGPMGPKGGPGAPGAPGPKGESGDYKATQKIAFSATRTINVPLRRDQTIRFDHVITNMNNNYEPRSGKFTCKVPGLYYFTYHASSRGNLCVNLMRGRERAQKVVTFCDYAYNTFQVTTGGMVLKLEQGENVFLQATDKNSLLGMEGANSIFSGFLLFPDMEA
Sequence of Purified human C1q (191391, MP Biomedicals) (P02747 29-245 limits assumed, chain 3 of 3): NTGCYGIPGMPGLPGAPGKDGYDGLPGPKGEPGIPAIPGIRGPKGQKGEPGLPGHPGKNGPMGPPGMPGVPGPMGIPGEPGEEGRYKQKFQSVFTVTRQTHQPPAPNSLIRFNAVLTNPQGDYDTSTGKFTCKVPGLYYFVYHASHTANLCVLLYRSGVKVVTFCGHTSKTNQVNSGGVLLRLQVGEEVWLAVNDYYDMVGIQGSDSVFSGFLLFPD
T2 sequence (P12314 16-288 limits assumed): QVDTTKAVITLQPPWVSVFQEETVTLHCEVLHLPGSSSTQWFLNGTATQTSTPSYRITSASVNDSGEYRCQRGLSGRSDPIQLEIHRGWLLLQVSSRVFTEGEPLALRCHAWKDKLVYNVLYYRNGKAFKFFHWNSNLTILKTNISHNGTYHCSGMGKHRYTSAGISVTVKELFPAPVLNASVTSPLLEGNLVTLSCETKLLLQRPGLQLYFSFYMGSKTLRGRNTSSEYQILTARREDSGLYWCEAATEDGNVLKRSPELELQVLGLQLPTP
T1 sequence (O75015 17-200 limits assumed): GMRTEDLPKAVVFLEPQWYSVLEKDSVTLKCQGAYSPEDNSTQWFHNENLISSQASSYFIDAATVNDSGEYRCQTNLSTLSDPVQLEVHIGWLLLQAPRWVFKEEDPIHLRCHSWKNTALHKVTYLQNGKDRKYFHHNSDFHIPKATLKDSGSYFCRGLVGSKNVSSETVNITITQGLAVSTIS

Row | Binder | binding result [1] | Relative Binding Capability (%) [2] [%] | Relative Binding Capability (%) [3] [%] | binding result [4] | binding result [5]
1 | Humanized 3D6 2m (FcγR), human IgG1 L234A/G237A (EU numbering) (antibody, also called Hu 3D6 2 m; Hu 3D6 2 m IgG1) heavy: not shown light: DVVMTQSPLSLPVTPGEPASISCKSSQSLLDSDGKTYLNWLLQKPGQSPQRLIYLVSKLDSGVPDRFSGSGSGTDFTLKISRVEAEDVGVYYCWQGTHFPRTFGQGTKVEIKRTVAAPSVFIFPPSDEQLKSGTASVVCLLNNFYPREAKVQWKVDNALQSGNSQESVTEQDSKDSTYSLSSTLTLSKADYEKHKVYACEVTHQGLSSPVTKSFNRGEC | no binding | 0 | 0 | no binding | no binding
2 | Bapineuzumab (humanized 3D6, human IgG1, no Fc mutations) (antibody, also called AAB-001; Bapineuzumab Control) heavy: not shown light: DVVMTQSPLSLPVTPGEPASISCKSSQSLLDSDGKTYLNWLLQKPGQSPQRLIYLVSKLDSGVPDRFSGSGSGTDFTLKISRVEAEDVGVYYCWQGTHFPRTFGQGTKVEIKRTVAAPSVFIFPPSDEQLKSGTASVVCLLNNFYPREAKVQWKVDNALQSGNSQESVTEQDSKDSTYSLSSTLTLSKADYEKHKVYACEVTHQGLSSPVTKSFNRGEC |  | 100 | 100 |  | 
3 | Humanized 3D6 3m (FcγR) AAB-003, human IgG1 L234A/L235A/G237A (EU numbering) (antibody, also called Hu 3D6 3 m; Hu 3D6 3 m IgG1) heavy: EVQLLESGGGLVQPGGSLRLSCAASGFTFSNYGMSWVRQAPGKGLEWVASIRSGGGRTYYSDNVKGRFTISRDNSKNTLYLQMNSLRAEDTAVYYCVRYDHYSGSSDYWGQGTLVTVSSASTKGPSVFPLAPSSKSTSGGTAALGCLVKDYFPEPVTVSWNSGALTSGVHTFPAVLQSSGLYSLSSVVTVPSSSLGTQTYICNVNHKPSNTKVDKKVEPKSCDKTHTCPPCPAPEAAGAPSVFLFPPKPKDTLMISRTPEVTCVVVDVSHEDPEVKFNWYVDGVEVHNAKTKPREEQYNSTYRVVSVLTVLHQDWLNGKEYKCKVSNKALPAPIEKTISKAKGQPREPQVYTLPPSREEMTKNQVSLTCLVKGFYPSDIAVEWESNGQPENNYKTTPPVLDSDGSFFLYSKLTVDKSRWQQGNVFSCSVMHEALHNHYTQKSLSLSPGK light: DVVMTQSPLSLPVTPGEPASISCKSSQSLLDSDGKTYLNWLLQKPGQSPQRLIYLVSKLDSGVPDRFSGSGSGTDFTLKISRVEAEDVGVYYCWQGTHFPRTFGQGTKVEIKRTVAAPSVFIFPPSDEQLKSGTASVVCLLNNFYPREAKVQWKVDNALQSGNSQESVTEQDSKDSTYSLSSTLTLSKADYEKHKVYACEVTHQGLSSPVTKSFNRGEC | no binding | 0 | 0 | no binding | no binding
4 | Humanized 3D6 1m (hinge region), human IgG4 S241P (Kabat numbering) (antibody, also called Hu 3D6 1m IgG4; IgG4 isotype) heavy: not shown light: DVVMTQSPLSLPVTPGEPASISCKSSQSLLDSDGKTYLNWLLQKPGQSPQRLIYLVSKLDSGVPDRFSGSGSGTDFTLKISRVEAEDVGVYYCWQGTHFPRTFGQGTKVEIKRTVAAPSVFIFPPSDEQLKSGTASVVCLLNNFYPREAKVQWKVDNALQSGNSQESVTEQDSKDSTYSLSSTLTLSKADYEKHKVYACEVTHQGLSSPVTKSFNRGEC | no binding | 0 |  | no binding | binds
